Experimental data published in patent publication US20260035452A1 (THE UNIVERSITY OF BIRMINGHAM, priority 2022, published 2026).

Columns and labels:
dorsal air pouch of mice = assay: In vivo air pouch model; conditions: 1 μg/mice into air pouch, 24 h
Protocol: FIG. 3: Mice were treated with IL-17 vehicle (Ctrl), IL-17 (1 μg/mice) alone (IL-17) or peptide (FM-0410) (1 μg/mice) and thereafter total cell number from pouches inflammatory exudates was evaluated at 24 h. Data were expressed as millions of cells for pouch and presented as means±S.D. of n=7 mice per group. Statistical analysis was conducted by one-way ANOVA followed by Bonferroni's for multiple comparisons. ^##P≤0.01, ^###P≤0.005 vs Ctrl group; *P≤0.05 vs IL-17 group.
FIG. 4: Inflammatory supernatants obtained from the pouch cavities were assayed using a Proteome Profiler Cytokine Array for Ctrl, IL-17 and FM-0410 experimental group. Densitometric analysis is presented as heatmap. Data (expressed as INT/mm2) are presented as means±S.D. of positive spots of three independent experiments run each with n=7 mice per group.
FIG. 5: Mice were treated with IL-17 vehicle (Ctrl), IL-17 (1 μg/mice), or peptide (FM-0410) (1 μg/mice) and inflammatory fluids were assayed by Elisa for IL-6. Data were expressed as pg/ml and presented as means±S.D. of n=7 mice per group. Statistical analysis was conducted by one-way ANOVA followed by Bonferroni's for multiple comparisons. ^##P≤0.01 vs CTRL group. […]
Specifically, dorsal air pouches were prepared by injection of 2.5 ml of air on day 0 and day 3 as previously described (Maione et al., 2009). […] Inflammatory exudates were collected and measured to evaluate the level of inflammatory cyto-chemokines. Cell number was determined by TC20 automated cell counter (Bio-Rad, Milan, Italy) using Bio-Rad's TC20 automated cell counter uses disposable slides, TC20 trypan blue dye (0.4% trypan blue dye w/v in 0.81% sodium chloride and 0.06% potassium phosphate dibasic solution) and a CCD camera to count cells based on the analyses of capture images (Maione et al., 2018).
Methods: The levels of IL-6 in the cellular and air pouch inflammatory supernatants at 24 h were measured using commercially available enzyme-linked immunosorbent assay kit (ELISA kit, R&D System, Milan, Italy) according to the manufacturer instructions. […]

[1] = tested on: hPBMC on cytokine-stimulated HDBEC monolayers; assay: Human PBMC static adhesion / transendothelial migration assay; assay type: cell-based; conditions: co-treatment plus TNF-α
Protocol: FIG. 10: Human dermal blood endothelial cells (HDBEC) were treated with: IL-17 vehicle (Ctrl), IL-17 or FM-0410 (100 ng/ml), alone or in combination with TNF-α (100 U/ml) for 24 h. Cells were washed, gated in their totality and singlet before the identification of IL-17Rs (RA and RC) (A, B), ICAM (C) and VCAM (D) expression. Histogram values (expressed as MIF) indicate the total positive cells (A-D). In (E) are shown phase-contrast micrographs of confluent monolayers of untreated or treated (as reported before) HDBEC. Total adhesion (expressed as INT/mm^2, F) and % of transmigration (G) are calculated with Image Pro programme (DataCell, Finchampstead). Inflammatory supernatants from all experimental conditions were assayed by Elisa for IL-6 (H) expressed in pg/ml. Data were presented as means±S.D. of n=3 healthy donors. […]
Human PBMC transendothelial migration assay: Prior to beginning the assay, HDBEC monolayers were washed with 37° C. medium 199 (Thermo Fisher Scientific) supplemented with 0.15% w/v BSA (MilliporeSigma) to remove any residual cytokines. hPBMC (1×10^6) were co-cultured with cytokine-stimulated HDBEC monolayers at 37° C. for 20 min. […] Total hPBMC adhesion and mean percentage transmigration were calculated for each well.

B1: IL-17: recombinant mouse IL-17 purchased from R&D System; full-length cytokine used as comparator and stimulus (protein, UniProt Q62386 26-158, looked up)
Interleukin-17A: AAIIPQSSACPNTEAKDFLQNVKVNLKVFNSLGAKVSSRRPSDYLNRSTSPWTLHRNEDPDRYPSVIWEAQCRHQRCVNAEGKLDHHMNSVLIQQEILVLKREPESCPFTFRVEKMLVGVGCTCVASIVRQAA
In the case of B1, the “cyto-chemokines profile of pouch fluid (Proteome Profiler Cytokine Array)” value (dorsal air pouch of mice) is reported as “significant increase of cyto-chemokines profile compared to ctrl group”, the “level of IL-6 in pouch fluids” value (dorsal air pouch of mice) is reported as “increased level of IL-6 compared to control group” and the “number of inflammatory leukocytes (total cell number from pouch exudates)” value (dorsal air pouch of mice) is reported as “significant differences in the number of inflammatory leukocytes compared to control group”. For the same molecule, the “total number of adhered hPBMC” value [1] was “significant increase” and the “transmigrated hPBMC” value [1] was “significant increase”.
